From article PMC7780238, “Structures of ISC th4 transpososomes reveal the role of asymmetry in copy‐out/paste‐in DNA transposition”
Each block holds one molecule with its values, some of them ahead of it.

Assays:
[1] = molecular target: ISCth4 transposase (TnpA) (Clostridium thermocellum (ATCC 27405)); experiment: AUC; sedimentation velocity, TnpA alone at 0.5-2 uM, 20 C, 50,000 RPM, 10 mM HEPES pH 7.5, 100 mM, 0.3 mM TCEP; monomer to dimer
[2] = molecular target: ISCth4 transposase (TnpA) (Clostridium thermocellum (ATCC 27405)); experiment: AUC; sedimentation velocity, TnpA (0.5 or 5 uM) with molar excess of TIR DNA oligonucleotides (R-TIR26 at 4:1 DNA:TnpA; R35(j6)L35 or R35r41 with increasing DNA), 20 C, 10 mM HEPES pH 7.5, 100 mM, 0.3 mM TCEP
[3] = molecular target: T1, ISCth4 transposase (TnpA) (Clostridium thermocellum ATCC 27405, UniProt A3DBR0 1-407); experiment: SEC; 40 uM TnpA; ~450 kDa, octamer with 4 TIRs; behaves like R-TIR; SEC: 10 mM HEPES pH 7.5, 100 mM NaCl, 0.3 mM TCEP, 4 C. Crystals: PCC 25 mM HEPES pH 7.5, 150 mM NaCl, 2 mM TCEP, 20 C; PRC/STC1 10 mM HEPES pH 7.5, 100 mM NaCl; details: protein: recombinant; tags: Trx-His-TEV fusion removed by TEV; chain copies: 2; blunt
T1 sequence: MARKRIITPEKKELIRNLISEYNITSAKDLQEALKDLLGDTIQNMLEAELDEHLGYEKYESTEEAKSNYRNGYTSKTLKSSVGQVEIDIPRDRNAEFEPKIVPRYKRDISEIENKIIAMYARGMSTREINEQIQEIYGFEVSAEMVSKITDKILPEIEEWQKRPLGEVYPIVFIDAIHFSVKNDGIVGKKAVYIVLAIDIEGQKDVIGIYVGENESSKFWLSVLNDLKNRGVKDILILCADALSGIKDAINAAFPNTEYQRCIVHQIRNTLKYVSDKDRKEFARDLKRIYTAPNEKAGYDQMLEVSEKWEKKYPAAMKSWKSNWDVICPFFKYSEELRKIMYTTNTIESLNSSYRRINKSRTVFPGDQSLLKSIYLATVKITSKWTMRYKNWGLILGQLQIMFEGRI

[4] = molecular target: T1, ISCth4 transposase (TnpA); experiment: SV AUC; 5 uM TnpA; 7.9 S, 138 kDa dimer:1 DNA, plus ~12 S at DNA:TnpA 0.25:1; SEC: 10 mM HEPES pH 7.5, 100 mM NaCl, 0.3 mM TCEP, 4 C. Crystals: PCC 25 mM HEPES pH 7.5, 150 mM NaCl, 2 mM TCEP, 20 C; PRC/STC1 10 mM HEPES pH 7.5, 100 mM NaCl; details: protein: recombinant; tags: Trx-His-TEV fusion removed by TEV; chain copies: 2; label: 5'FAM on strand 1 in the labeled version; blunt
[5] = molecular target: T1, ISCth4 transposase (TnpA); experiment: X-ray crystallography; PCC; TnpA dimer on one DNA, no metal in active site; 3.5 A native; SEC: 10 mM HEPES pH 7.5, 100 mM NaCl, 0.3 mM TCEP, 4 C. Crystals: PCC 25 mM HEPES pH 7.5, 150 mM NaCl, 2 mM TCEP, 20 C; PRC/STC1 10 mM HEPES pH 7.5, 100 mM NaCl; details: protein: recombinant; tags: Trx-His-TEV fusion removed by TEV; chain copies: 2; blunt
[6] = molecular target: T1, ISCth4 transposase (TnpA); experiment: X-ray crystallography; STC1; TnpA dimer on one DNA; ZnCl2 in drop; SEC: 10 mM HEPES pH 7.5, 100 mM NaCl, 0.3 mM TCEP, 4 C. Crystals: PCC 25 mM HEPES pH 7.5, 150 mM NaCl, 2 mM TCEP, 20 C; PRC/STC1 10 mM HEPES pH 7.5, 100 mM NaCl; details: protein: recombinant; tags: Trx-His-TEV fusion removed by TEV; chain copies: 2; 3 strands; blunt outer ends; 1-nt gap between S68 and S66
[7] = molecular target: T1, ISCth4 transposase (TnpA); experiment: X-ray crystallography; PRC; TnpA dimer on one DNA; 10 mM CaCl2 in precipitant; SEC: 10 mM HEPES pH 7.5, 100 mM NaCl, 0.3 mM TCEP, 4 C. Crystals: PCC 25 mM HEPES pH 7.5, 150 mM NaCl, 2 mM TCEP, 20 C; PRC/STC1 10 mM HEPES pH 7.5, 100 mM NaCl; details: protein: recombinant; tags: Trx-His-TEV fusion removed by TEV; chain copies: 2; blunt
[8] = molecular target: T1, ISCth4 transposase (TnpA); experiment: SV AUC; 5 uM TnpA; ~7.9 S, plus ~12 S at DNA:TnpA 0.25:1; SEC: 10 mM HEPES pH 7.5, 100 mM NaCl, 0.3 mM TCEP, 4 C. Crystals: PCC 25 mM HEPES pH 7.5, 150 mM NaCl, 2 mM TCEP, 20 C; PRC/STC1 10 mM HEPES pH 7.5, 100 mM NaCl; details: protein: recombinant; tags: Trx-His-TEV fusion removed by TEV; chain copies: 2; blunt

stoichiometry N [1]: 2
stoichiometry N [2]: 2
Molecule: ISCth4 transposase (TnpA) (enzyme)

B1: L-TIR26 (dsDNA)
DNA 1: GAGATTGTAAAATATTTTATGTAAAC
DNA 2: GTTTACATAAAATATTTTACAATCTC
binding result [3]: binds

B2: R35(j6)L35 (dsDNA)
DNA 1: GCACTGGATGTTTACACAAAAATATTTACACTGCCTTTTTTGAGATTGTAAAATATTTTATGTAAACAGTGCACTG
DNA 2: CAGTGCACTGTTTACATAAAATATTTTACAATCTCAAAAAAGGCAGTGTAAATATTTTTGTGTAAACATCCAGTGC
binding result [4]: binds

B3: R-TIR26 (dsDNA)
DNA 1: GGCAGTGTAAATATTTTTGTGTAAAC
DNA 2: GTTTACACAAAAATATTTACACTGCC
binding result [5]: binds

B4: R26(j6)L15-5'rec (dsDNA)
DNA 1: GTTTACACAAAAATATTTACACTGCCGTTTTGGAGATTGTAAAATAT
DNA 2: ATATTTTACAATCTCCAAAAC
DNA 3: GCAGTGTAAATATTTTTGTGTAAAC
binding result [6]: binds

B5: fR-TIR26 (dsDNA)
DNA 1: TTTTTGGGCAGTGTAAATATTTTTGTGTAAAC
DNA 2: GTTTACACAAAAATATTTACACTGCCCAAAAA
binding result [7]: binds

B6: R35r41 (dsDNA)
DNA 1: GCACTGGATGTTTACACAAAAATATTTACACTGCCTTTTTTTACCTAGTCATCAATGCCTACGTACGTAACGTTAC
DNA 2: GTAACGTTACGTACGTAGGCATTGATGACTAGGTAAAAAAAGGCAGTGTAAATATTTTTGTGTAAACATCCAGTGC
binding result [8]: binds
